Biological target: T1, LRP1 (low density lipoprotein receptor-related protein 1), endogenous in HEK293T cells (human, UniProt Q07954 20-4544)
T1 construct: Endogenous protein in HEK293T lysates (TAP-MS prey, co-IP); also called endogenous LRP1
Experiment: TAP-MS of SFB-tagged Notch pathway proteins in HEK293T cells
Procedure: We picked 12 clones of each bait for the follow-up experiments and confirmed the bait protein expression and localization using Western blotting and immunostaining, respectively. From which, we chose two clones of each bait with the correct subcellular localization and a moderate expression close to that of endogenous one as biological repeat for TAP-MS analysis. HEK293T cells stably expressing C-terminal SFB-fused Notch pathway proteins were selected via culture in medium containing 2 μg/ml puromycin. Protein expression was confirmed via immunostaining and Western blotting as described previously (Wang, W., Li, X., Huang, J., Feng, L., Dolinta, K. G., and Chen, J. (2014). Defining the protein-protein interaction network of the human hippo pathway. Mol Cell Proteomics 13, 119-131.).
For TAP experiments, the membrane-bound and soluble proteins of 2×10⁸ HEK293T cells were extracted using a membrane/soluble protein isolation kit (Beyotime, China) with protease inhibitors at 4° C. The insoluble pellets from the crude lysis step were briefly sonicated and incubated with TurboNuclease for 30 min at 37° C. with occasional vortexing to extract chromatin-bound protein complexes. The lysates were then centrifuged at 14,000 rpm for 30 min at 4° C., and the supernatant was collected as a chromatin fraction. […]

T1 sequence (Q07954 20-4544 limits assumed): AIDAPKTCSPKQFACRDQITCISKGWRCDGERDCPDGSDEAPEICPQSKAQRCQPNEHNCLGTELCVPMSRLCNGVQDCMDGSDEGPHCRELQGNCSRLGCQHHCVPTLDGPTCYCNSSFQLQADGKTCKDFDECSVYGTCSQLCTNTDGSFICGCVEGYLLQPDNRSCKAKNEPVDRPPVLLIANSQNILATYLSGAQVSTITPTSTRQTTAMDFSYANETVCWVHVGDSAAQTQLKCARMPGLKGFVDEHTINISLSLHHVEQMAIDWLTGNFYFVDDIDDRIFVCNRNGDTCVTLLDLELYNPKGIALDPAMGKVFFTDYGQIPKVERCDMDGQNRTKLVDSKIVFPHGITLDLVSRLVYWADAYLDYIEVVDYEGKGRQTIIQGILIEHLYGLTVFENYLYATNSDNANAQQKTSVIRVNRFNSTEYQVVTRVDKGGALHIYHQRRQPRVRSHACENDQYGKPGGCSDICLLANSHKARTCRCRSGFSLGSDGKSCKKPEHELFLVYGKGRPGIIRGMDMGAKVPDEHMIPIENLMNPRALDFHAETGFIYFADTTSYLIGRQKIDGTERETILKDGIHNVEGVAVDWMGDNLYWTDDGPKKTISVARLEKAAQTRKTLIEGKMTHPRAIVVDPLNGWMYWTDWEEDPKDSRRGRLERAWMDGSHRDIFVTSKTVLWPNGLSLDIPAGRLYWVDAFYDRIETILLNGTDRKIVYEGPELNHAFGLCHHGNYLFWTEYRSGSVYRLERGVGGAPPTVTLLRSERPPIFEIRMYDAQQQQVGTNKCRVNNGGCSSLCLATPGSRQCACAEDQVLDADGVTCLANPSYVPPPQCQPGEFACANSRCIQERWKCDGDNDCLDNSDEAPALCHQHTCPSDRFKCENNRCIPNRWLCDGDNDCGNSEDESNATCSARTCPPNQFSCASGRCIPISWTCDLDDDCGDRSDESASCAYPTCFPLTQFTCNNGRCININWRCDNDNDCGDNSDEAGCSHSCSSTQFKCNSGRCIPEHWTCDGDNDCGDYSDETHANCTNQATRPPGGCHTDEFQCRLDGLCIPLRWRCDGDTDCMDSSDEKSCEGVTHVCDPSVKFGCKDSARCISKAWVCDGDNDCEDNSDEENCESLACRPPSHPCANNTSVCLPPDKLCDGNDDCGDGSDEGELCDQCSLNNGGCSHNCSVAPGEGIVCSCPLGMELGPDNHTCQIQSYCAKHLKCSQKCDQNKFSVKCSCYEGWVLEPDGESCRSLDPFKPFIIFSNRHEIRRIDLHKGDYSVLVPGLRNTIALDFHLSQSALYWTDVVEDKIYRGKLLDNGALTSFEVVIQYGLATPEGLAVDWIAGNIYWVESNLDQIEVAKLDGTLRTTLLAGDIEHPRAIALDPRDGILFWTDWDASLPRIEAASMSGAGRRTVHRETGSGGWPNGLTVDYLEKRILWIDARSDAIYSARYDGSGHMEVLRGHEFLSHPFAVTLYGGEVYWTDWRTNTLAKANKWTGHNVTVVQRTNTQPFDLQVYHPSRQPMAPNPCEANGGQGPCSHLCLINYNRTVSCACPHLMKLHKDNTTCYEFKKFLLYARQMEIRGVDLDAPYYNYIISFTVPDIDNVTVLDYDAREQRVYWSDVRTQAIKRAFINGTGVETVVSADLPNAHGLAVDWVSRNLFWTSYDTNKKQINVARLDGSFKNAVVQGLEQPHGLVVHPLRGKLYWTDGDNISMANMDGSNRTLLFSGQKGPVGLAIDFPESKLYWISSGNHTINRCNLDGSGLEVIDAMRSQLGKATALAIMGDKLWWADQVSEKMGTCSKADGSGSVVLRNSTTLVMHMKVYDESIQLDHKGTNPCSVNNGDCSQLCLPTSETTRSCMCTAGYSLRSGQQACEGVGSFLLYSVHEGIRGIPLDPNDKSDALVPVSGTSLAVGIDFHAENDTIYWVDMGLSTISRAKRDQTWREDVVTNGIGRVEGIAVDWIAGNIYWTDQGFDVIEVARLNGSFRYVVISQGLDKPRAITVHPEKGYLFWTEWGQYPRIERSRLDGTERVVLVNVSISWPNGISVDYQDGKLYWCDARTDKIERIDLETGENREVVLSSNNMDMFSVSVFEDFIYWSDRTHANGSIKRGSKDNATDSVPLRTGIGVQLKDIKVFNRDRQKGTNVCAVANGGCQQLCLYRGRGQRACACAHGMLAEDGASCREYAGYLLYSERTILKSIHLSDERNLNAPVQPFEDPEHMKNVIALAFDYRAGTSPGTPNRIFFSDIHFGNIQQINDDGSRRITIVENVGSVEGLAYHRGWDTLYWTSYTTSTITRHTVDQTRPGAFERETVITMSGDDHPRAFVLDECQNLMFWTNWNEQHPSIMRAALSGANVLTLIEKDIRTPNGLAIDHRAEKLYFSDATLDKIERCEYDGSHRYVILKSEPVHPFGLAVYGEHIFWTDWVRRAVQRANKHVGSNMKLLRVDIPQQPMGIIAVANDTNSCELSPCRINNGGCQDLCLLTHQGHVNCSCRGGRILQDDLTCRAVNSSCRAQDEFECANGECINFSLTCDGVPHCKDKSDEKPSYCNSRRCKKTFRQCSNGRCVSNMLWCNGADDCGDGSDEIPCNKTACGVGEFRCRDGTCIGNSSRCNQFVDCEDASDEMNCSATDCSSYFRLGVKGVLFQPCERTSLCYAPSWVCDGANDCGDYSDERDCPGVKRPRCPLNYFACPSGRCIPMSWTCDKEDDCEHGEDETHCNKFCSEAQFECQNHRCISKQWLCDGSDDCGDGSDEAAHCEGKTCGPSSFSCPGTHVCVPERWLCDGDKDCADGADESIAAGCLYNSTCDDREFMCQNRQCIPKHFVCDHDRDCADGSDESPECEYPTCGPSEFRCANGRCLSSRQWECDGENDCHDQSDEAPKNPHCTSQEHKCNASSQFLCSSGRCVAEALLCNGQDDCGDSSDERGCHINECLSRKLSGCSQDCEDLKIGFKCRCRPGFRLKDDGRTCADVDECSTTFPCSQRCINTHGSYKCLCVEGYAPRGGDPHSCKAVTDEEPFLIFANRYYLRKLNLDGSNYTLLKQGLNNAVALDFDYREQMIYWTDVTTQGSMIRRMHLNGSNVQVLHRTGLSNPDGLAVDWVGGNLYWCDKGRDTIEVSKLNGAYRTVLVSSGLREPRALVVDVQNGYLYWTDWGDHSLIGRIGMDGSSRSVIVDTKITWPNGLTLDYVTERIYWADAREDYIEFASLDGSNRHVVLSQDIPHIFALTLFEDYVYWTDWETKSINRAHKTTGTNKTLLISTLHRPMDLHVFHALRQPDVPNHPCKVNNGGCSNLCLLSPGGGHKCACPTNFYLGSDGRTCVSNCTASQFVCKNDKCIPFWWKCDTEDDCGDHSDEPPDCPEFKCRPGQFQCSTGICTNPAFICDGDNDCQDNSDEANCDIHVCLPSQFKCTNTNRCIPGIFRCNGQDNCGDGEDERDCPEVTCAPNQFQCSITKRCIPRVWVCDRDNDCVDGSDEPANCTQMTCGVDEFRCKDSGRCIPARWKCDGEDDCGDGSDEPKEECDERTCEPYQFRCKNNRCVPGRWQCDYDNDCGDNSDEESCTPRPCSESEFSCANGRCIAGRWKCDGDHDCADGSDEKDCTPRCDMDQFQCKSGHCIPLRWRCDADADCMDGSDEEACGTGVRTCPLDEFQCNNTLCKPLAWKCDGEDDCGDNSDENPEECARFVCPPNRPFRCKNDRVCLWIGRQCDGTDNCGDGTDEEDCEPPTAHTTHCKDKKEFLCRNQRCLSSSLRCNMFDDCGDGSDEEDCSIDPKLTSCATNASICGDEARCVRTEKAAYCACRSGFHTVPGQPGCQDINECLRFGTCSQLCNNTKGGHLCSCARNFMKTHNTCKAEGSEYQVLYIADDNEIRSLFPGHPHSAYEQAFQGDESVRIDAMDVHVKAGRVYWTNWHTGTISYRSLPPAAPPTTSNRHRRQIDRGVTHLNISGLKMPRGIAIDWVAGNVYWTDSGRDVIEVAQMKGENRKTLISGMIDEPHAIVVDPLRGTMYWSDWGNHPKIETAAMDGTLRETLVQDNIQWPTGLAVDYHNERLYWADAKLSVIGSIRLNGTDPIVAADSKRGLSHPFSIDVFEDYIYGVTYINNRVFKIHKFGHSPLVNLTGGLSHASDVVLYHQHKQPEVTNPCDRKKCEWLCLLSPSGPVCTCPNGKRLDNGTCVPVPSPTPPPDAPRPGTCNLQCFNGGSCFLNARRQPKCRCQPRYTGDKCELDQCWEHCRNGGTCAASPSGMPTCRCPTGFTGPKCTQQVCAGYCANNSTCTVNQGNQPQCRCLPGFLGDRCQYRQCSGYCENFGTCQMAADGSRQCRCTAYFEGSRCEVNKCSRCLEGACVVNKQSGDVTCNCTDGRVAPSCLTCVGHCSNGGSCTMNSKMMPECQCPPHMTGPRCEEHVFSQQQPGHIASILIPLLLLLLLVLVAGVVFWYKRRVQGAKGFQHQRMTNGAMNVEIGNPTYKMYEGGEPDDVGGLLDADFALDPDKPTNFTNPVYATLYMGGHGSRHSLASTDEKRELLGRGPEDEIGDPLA

B1: cSFB-tagged wild-type DLL3 (ligand, human, UniProt Q9NYJ7 27-618, looked up)
chain: AGVFELQIHSFGPGPGPGAPRSPCSARLPCRLFFRVCLKPGLSEEAAESPCALGAALSARGPVYTEQPGAPAPDLPLPDGLLQVPFRDAWPGTFSFIIETWREELGDQIGGPAWSLLARVAGRRRLAAGGPWARDIQRAGAWELRFSYRARCEPPAVGTACTRLCRPRSAPSRCGPGLRPCAPLEDECEAPLVCRAGCSPEHGFCEQPGECRCLEGWTGPLCTVPVSTSSCLSPRGPSSATTGCLVPGPGPCDGNPCANGGSCSETPRSFECTCPRGFYGLRCEVSGVTCADGPCFNGGLCVGGADPDSAYICHCPPGFQGSNCEKRVDRCSLQPCRNGGLCLDLGHALRCRCRAGFAGPRCEHDLDDCAGRACANGGTCVEGGGAHRCSCALGFGGRDCRERADPCAARPCAHGGRCYAHFSGLVCACAPGYMGARCEFPVHPDGASALPAAPPGLRPGDPQRYLLPPALGLLVAAGVAGAALLLVHVRRRGHSQDAGSRLLAGTPEPSVHALPDALNNLRTQEGSGDGPSSSVDWNRPEDVDPQGIYVISAPSIYAREVATPLFPPLHTGRAGQRQHLLFPYPSSILSVK
notes: Expressed in HEK293T cells, pulled down on S beads; also called cSFB-DLL3; C-terminal SFB-fused DLL3; not shown: C-terminal SFB triple tag (S protein tag-2xFLAG tag-SBP tag)
**Q.** Does B1 bind?
**A.** Result: binds

Source: patent US20240307489A1 (WESTLAKE UNIVERSITY, published 2024)
